Results reported in US6645501B2, “Anti-pathogen system and methods of use thereof” (Washington University, priority 1997, dated 2003).

Key:
Type in all cases: cell-based
[1] = system: HIV-infected (NLHX strain) and uninfected Jurkat T-cells; test: FACS analysis of transduction and retention of fusion proteins in HIV-infected and uninfected Jurkat T-cells; conditions: about 35 to 45 nanomoler, about 30 minutes, HIV (NLHX) infected Jurkat culture
Method: To see if p16 fusion proteins could remain in the cell cytosol of the HIV infected cells, the TAT-HIV1,2 p16 fusion proteins produced in Example 3 were purified and labeled with FITC as described above. About 35 to 45 nanomoler of the labeled fusion protein was then added to HIV-infected (NLHX strain) and uninfected Jurkat T-cells in accordance with Example 6 below. The transduced Jurkat T-cells were then analyzed by FACS. All (100%) of cells in a mixed population of HIV infected/uninfected cells were transduced with the p16 protein at 1, 2, 4, 8 and 16 hours post-addition of the FITC conjugated fusion protein. However, when the cells were washed in fresh media and the PTD has driven out of the cells due to the concentration gradient (now high inside and 0 outside), the infected cells retained the cleaved substrate (the p16 portion) but uninfected controls lost all of the transduced protein (it transduced out) as determined by the continued presence of FITC-labeled p16 as analyzed by FACS.
About 5×10^6 Jurkat T-cells were infected by HIV (strain NLHX; about 1×10^5 to 1×10^6 infectious virus per ml). The cells were propagated in RPMI media. Approximately 4 to 7 days after the infection, the media was removed from the plates and about 35 to 45 nanomoler of the TAT-CPP32 fusion protein was added to the cells. […]

[2] = system: Jurkat T-cells infected by HIV (strain NLHX); test: Killing of HIV-infected Jurkat T-cells, trypan blue exclusion and microscopy; conditions: about 18 hours post-transduction
Method: About 5×10^6 Jurkat T-cells were infected by HIV (strain NLHX; about 1×10^5 to 1×10^6 infectious virus per ml). The cells were propagated in RPMI media. Approximately 4 to 7 days after the infection, the media was removed from the plates and about 35 to 45 nanomoler of the TAT-CPP32 fusion protein was added to the cells. The cells were incubated with the fusion proteins for about 30 minutes to allow transduction into the cells. […] Subsequently, media was added back to the plates and after about 18 hours post-transduction, the cells were examined for cell killing using conventional trypan blue exclusion and microscopy.
Briefly, cells were infected and transduced as described in Example 6 above. Following the transduction, about 1 μg/ml Ritonavir was added to the cell media and allowed to incubate with the cells for about 18 hours. The cells were then assayed for cell killing by conventional trypan blue exclusion and microscopy. […]

Jurkat T cells = test: Co-transduction of uninfected Jurkat T cells with TAT-CPP32 and TAT-Protease, survival by trypan-blue exclusionary dye microscopy; conditions: 50-100 nM, uninfected Jurkat T cells, 18 hr post-addition
Method: To test for activation of the TAT-CPP32 by TAT-Protease, 2×10^6 Jurkat T cells were placed in 2 ml of culture (RPMI media). To these cells, various combinations of control and experimental transducible proteins were added in 50-100 nM ranges, as follows:
The cells were assayed for survival at 18 hr post-addition by trypan-blue exclusionary dye microscopy. […] Thus, activation of TAT-CPP32 requires the presence of HIV protease.

B1: TAT-CPP32: HIS-TAT-PTD-HIV2-large subunit of CPP32-HIV1-small subunit of CPP32 fusion protein (protein)
chain: GRKKRRQRRRGYPYDVPDYACTERQANFLGKIWPGISLDNSYKMDYPEMGLCIIINNKNFHKSTGMTSRSGTDVDAANLRETFRNLKYEVRNKNDLTREEIVELMRDVSKEDHSKRSSFVCVLLSHGEEGIIFGTNGPVDLKKITNFFRGDRCRSLTGKPKLFIIQACRGTELDCGIETSQVSQNYPIVQNLQGVDDDMACHKIPVEADFLYAYSTAPGYYSWRNSKDGSWFIQSLCAMLKQYADKLEFMHILTRVNRKVATEFESFSFDATFHAKKQIPCIVSMLTKELYFYH
modifications: left off: small tags and cut ends
notes: HIS-TAT-PTD-HIV2-large subunit of CPP32-HIV1-small subunit of CPP32 fusion protein
**Q.** What does the source list for B1?
**A.** cells transduced by the fusion protein [1]: about 100%; killing of HIV-infected cells ([2]; about 35 to 45 nanomoler): about all of the infected cells were killed; killing of uninfected cells in the population [2]: does not kill; cytotoxicity when added alone (Jurkat T cells): minimal cytotoxicity; loss of viable cells when added plus TAT-Protease (Jurkat T cells): substantial loss of viable cells
